Source: the nanobody polyreactivity screen of Harvey et al. (2022)

Assay: yeast display, Sf9 membrane polyspecificity reagent, FACS + sequencing; frameworks hold sequencing errors
Procedure, shortened: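 Using colony PCR, genes from sorted yeast display clones were amplified, then sequenced on MiSeq at 2 × 250 and filtered by CDR length. The clones had been stained with 10% biotinylated, detergent-solubilized Sf9 membrane reagent for 1 hour at 4 °C and sorted by FACS into low and high (top ~1%) gates on anti-HA and streptavidin fluorescence. Polyreactivity labels come from the gate of origin.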

Sequence: QVQLVESGGGLVQAGGSLRLSCAASGRTFYYNAMGWYRQAPGKEREFVAGISYGGTTTYYADSVKGRFTISRDNAKNTVYLQMNSLKPEDTAVYYCAAGYTWRQSWYPFDYWGQGTQVTVSS
- polyreactivity (PSR sort gate): high polyreactivity

Sequence: QVQLVESVGGLVQAGGSLPLSCAASGRTFTSYAMGWYRQAPGKERELVAAINYSGGSTYYADSVKGRFTISRDNAKNTVYLQMNSLKPEETAVYYCAKSSHAREYYYWGQGTQVTVSS
- polyreactivity (PSR sort gate): low polyreactivity

Sequence: HVQLVESGGGLVQAGGSLRLSCAASGSTFYRNAMGWYREAPGKEWEFVADITLGGGSTYYADSVKGRFTISRDNAKNTVYLQMNSLKPEDTAVYYCAVDYWQLNYDYWGQGTQVTVSS
- polyreactivity (PSR sort gate): low polyreactivity

Sequence: QVQLVESGGGLVQAGGSLRLSCAASGRIFKVYAMGWYRQAPGKERELVAVITGGGSTNYADSVKGRFTISRDNAKNTVYLQMNSLKPEDTAVYYCATEGYGHGGETDGGVYSDLGYWGQGTQVTVSS
- polyreactivity (PSR sort gate): low polyreactivity

Sequence: QVQLVESGGGLVQAGGSLRLSCAASGRTFQWYVMGWYRQAPGKERELVAAITKSGGSTFYADSVKGRFTISRDNAKNTVYLQMNSLKPEDTAVYYCAASGRYAIVLGDQYYGYYYWGQGTQVTVSS
- polyreactivity (PSR sort gate): high polyreactivity

Sequence: QVQLVESGGGLVQAGGSLRLSCAASGFIFRSYAMGWYRQAPGKERELVAAINSRAGNTYYADSVKGRFTISRDNAKNTVYLQINSLKPEDNAVYYCNAVRHTYGYYSWGQGTQVTVSS
- polyreactivity (PSR sort gate): high polyreactivity

Sequence: QVQLVESGGGLVQAGGSLRLTCAASGRIFWSYAMGWYRQAPGKERELVARITTGSSTNYADSVKGRFTISRDNAKNTVYLQMNSLKPEDTAVYYCAADVSNYYFAYYYWGQGTQVTVSS
- polyreactivity (PSR sort gate): low polyreactivity

Sequence: QVHLVESGGGLVQAGGRLRLSCAASGFTIGHYAMAWYRQAPGKERELVAAISSGDRTYYADSVKGRFTISRDNAKNTVYLQMNCLKPEDTAVYFCNGVYYSWAQSARFDYWGQGTQVTVSS
- polyreactivity (PSR sort gate): low polyreactivity

Sequence: QVQLVESGGGLVQAGGSLRLSCAASGITFGRNTKGWYRQAPGKERELVAAIDSGGNTYADSVKGRFTISRDNAKNTVYLQMNSLKPEDTAVYYCNAGYVHSFDYWGQGTQVTVSS
- polyreactivity (PSR sort gate): low polyreactivity

Sequence: QVQLVESGGGIVQAGGSLSLRCAASGRIFITNAMGWNRQAPGKERELVAAIRRRGGNTYYADSVKGRFTISRDNGKNTVYLLMNSLKPEDSAVYYCAVYPRPYNYNYWGQGTQVTVSS
- polyreactivity (PSR sort gate): high polyreactivity

Sequence: QVQLVESGGGLVQAGGSLRLSCADSGRTFTKYAMGRYRQAPGKERELVAAISRSGGSTYYADSVKGRFTISRVNAKNTVYLQMNSLKPEDTAVYYCAARRYRASSRGYGYWGQGTQVTVSS
- polyreactivity (PSR sort gate): high polyreactivity

Sequence: QVQLVESGGGLVQAGGSLRLSCTASGIIFGTYAMGLYRQAPGKERELVAAISSSGVSTYYADSVKGRFTISRDNAKNTVYLQMNSLKPEDTAVYYCAAPLHYGYYYWGQGTQVTVSS
- polyreactivity (PSR sort gate): high polyreactivity

Sequence: QVQLLESGGGLVQAGGSLRLSCAASGRIFSRYAMGWYRQAPGKERELVASISWSGDGTYYADSVKGRFTISRDNAKNTVYLQMNSLKPEDTAVYYCAAAPWDAPWSGYEYWGQGTEVTVSS
- polyreactivity (PSR sort gate): high polyreactivity

Sequence: QVQLVESGGGLVQAGGSLRLSCAASGSIFVGYAMGWYRQAPGKERELVAAITGSGTRTYYADSVKGRFTISRDNAKNTVYLQMNSLKPEDTAVYYCAAPLSYKNVKYDYWGQGTQVTVSS
- polyreactivity (PSR sort gate): low polyreactivity

Sequence: QVQLVESGGGLVQAGGSLRLSCAASGRTFCTNAMGWYRQAPGTERELVAVISGSTGSTYYADSVKGRFTISRDNAKNTVYLQMNSLKPEDTAVYYCAASYRNTGRWSYRGDYWGQGTQVTVSS
- polyreactivity (PSR sort gate): high polyreactivity

Sequence: QVQLVESGGCLVQAGGSLRLSCAASGFIFAYNAMGWYRQAPGKERELVAAISFSGGSTYYADSVKGRFTISRDTANNTVYLQMNSLKPEDTAVYYCAAVRYYWGQGTQVTVSS
- polyreactivity (PSR sort gate): high polyreactivity

Sequence: QVQLVESGGGLVQAGGSLRISCAASGNIFSVNAMGWYRQAPGKEREFVAAISGSGGSTYYADSVKGRFTISRDNAKNTVYLQMNSLKPEDTAVYYCAKRWYHPSSLPRYVFRGVDYWGQGTQVTVSS
- polyreactivity (PSR sort gate): high polyreactivity

Sequence: QVQLVESGGGLVQAGGSLRLSCAASGNTFVPYAMGWYIQAPRKEREFVAAISSTSGSTYYADSVKGRITISRDNAKNTVYLQMNSLKPEDTAVYYCATKRPYSSKRYKYWKVDYWGQGTQVTVSS
- polyreactivity (PSR sort gate): high polyreactivity

Sequence: QVQLVESGGGIVQAGGSLRLSCAASGRIFYSYAMGWYRQAPGKERELVATISSGGSTNYADSVKGRFTISRDNAKNTVYLQMNSLKPEDTAVYYCGRQSLRYSYVSRDYWGQGSQVTVSS
- polyreactivity (PSR sort gate): low polyreactivity

Sequence: QVQLVESGGGLVQAGGSLRLSCAASGFIFHTTVMVSYRQAPAKERELVAAISSGDSTYYADSVKGRFTISRDNAKNTVYLHMNSLKPEDTEVYYCARNVNAQKVLGGFDSWGQGTQVTVSS
- polyreactivity (PSR sort gate): low polyreactivity

Sequence: QVQLVESGGGLVQAGGSLRLSCAASGRIFGYNAMGWYRQAPGKERELVAAIRRSGNTYADSVKGRFTISRDNAKNTVYLQMNSLKPEDTAVYYCAHRVSKRMYYWGQGTQVTVSS
- polyreactivity (PSR sort gate): high polyreactivity

Sequence: QVQLQESGGGLMQAGGSQRLSCAASGSISYYSDMAWYRQAPGKEREFVAGIGYGTSTNYADSVKGRFTTSRDNAKNTVYLQMISMKPEDTAVYYCAAYQGNGYEFYYWGQGTQVTVRS
- polyreactivity (PSR sort gate): low polyreactivity

Sequence: QVQLVESGGGLVQAGGSLRLSCAASGRTLASYGMGWYRQAPGKERELVAAISSRGGTTYYADSVKGRFTISRDNAKNTVYLQMNSLKPEDTAVYYCAKPGRYWGQGTQVTVSS
- polyreactivity (PSR sort gate): high polyreactivity

Sequence: QVQLVESGGGLVQAGGSLRLSCAASGITFGNYAMGWYRQAPGKARELVAAITGSGGRTYYADSVKGRFTISRDNANNTVYLQMNRLKPEYTAVYYCNRRQYGRKKQYDYWGQGTQVTVSS
- polyreactivity (PSR sort gate): high polyreactivity

Sequence: QVQLVESGGGLVQAGGSLRLSCAASGSIFPRYAMGWYRQAPGKERELVAAITGSGSSTYYADSVKGRFTISRDNAKNTVYLQMNSLKPEDTAVYYCAGVYTYPLGYYHYTYDYWGQGTQVTVSS
- polyreactivity (PSR sort gate): low polyreactivity

Sequence: QVQLVESGAGLVQAGGSLRLSCAASGSTCPGNAMGWYRQAPGKERELVAVINSGGGTNYADSVKGRFTISRDNAKNTVYFQINSLNPEDTAVYYCAKGYRRSFIGYWYLKYGYWGQGTQVTVSS
- polyreactivity (PSR sort gate): high polyreactivity

Sequence: QVQLVESGGGLVQAGGSLRLSCAASGFTIDKNVMGWYRQAPGKERELVAAISVRGGTTYYADSVKGRFTISRDNAKNTVYLQMNSLKPEDTAVYYCAARAYGPPARYDSWGQGTQVTVSS
- polyreactivity (PSR sort gate): low polyreactivity

Sequence: QVQLVESGGGLVQAGGSLRLSCAASGSIFPSYAMGWYRQAPGKERELVAAISKSGGRTKYADSVKGRFTISRDNAKNTVYLQMNSLKPEDTAVYYCAAYAYFHRREGYWGQGTQVTVSS
- polyreactivity (PSR sort gate): high polyreactivity

Sequence: QVQLVESGGGLVQPVGSLRLSCAASGYTFPRYTMGWSRQAPGKERELVAAITSSGSTNYADSVKGRFTISRDNAKNTVYLQMNSLKPEDTAVYYCNKARIRTWSRGYDYWGQGTQLTVSS
- polyreactivity (PSR sort gate): high polyreactivity

Sequence: QVQLVESGGGLVQAGGSLRLSCAASGIIFTGYAMGWYRQAPGKERELVAAISESGGSTYYADSVKGRFTISRDNAKNTVYLQMNSLKPEDTAVDYCAVDALSITYGYWGQGTQVTVSS
- polyreactivity (PSR sort gate): low polyreactivity

Sequence: QDQLVESGGGLVQAGGSLRLSCAASGFTFRANAMGWYRQAPGKERELVAAISSGGRTNYADSVKGRFTISRDNAKNTVYLQMNSLKTEDTAVYYCAAAPSKWYYGYGYWGQGTQVTVSS
- polyreactivity (PSR sort gate): high polyreactivity

Sequence: QVQLVESGGCLVQAGGSLRLTCAASGSTFGYEGRGWYRQAPGKERELVASIDSRCDSTYADSVKGRFTISRDNAKNTVYLQMNSLKPEDTAVYYCAADSWYTWFDSWGQGTQVTVSS
- polyreactivity (PSR sort gate): low polyreactivity

Sequence: QVQLVESGGGLVQAGGSLRLSCAASGRTFRYNAMGWYRQAPGKERELVAAINWNGGSTYYADSVKGRFTISRDNAKNTVYLQMNSLKPEDTAVYYCNADFYHRYDWGQGTQVTVSS
- polyreactivity (PSR sort gate): high polyreactivity

Sequence: QVQLVESGGGLVQAGVSLLLSCAASGSTLYYNAMGWYRQAPGKERELVAAITSGGSTSYADSVKGRFTISRDNAKHTVYLQRNSLKPEDTAVYYCAAVFYRRFDYWGQGTQVTVSS
- polyreactivity (PSR sort gate): low polyreactivity

Sequence: QVQLVESGGGLVQAGGSLRLSCAASGIIFQFYAMGWYRQAPGKERELVAAISRSGGITHYADSVKGRFTISRDNAKNTVYLQMNSLKPEDTAVYYCNAVQPARFVGGFGTGVDYWGQGTQVTVSS
- polyreactivity (PSR sort gate): high polyreactivity

Sequence: QVQVVESGGGLVQAGGSLRLSCAASGSTFSWYAIGWYIQAPGKDRELVARISSGDRTNYADSVKGRFTITRDNAKNNVYLEMNSQKPEDTAVYYCNADYGQPSYYDDGDYWGQGTQVTVSS
- polyreactivity (PSR sort gate): low polyreactivity

Sequence: QVQLVESGGRLVQAGGSLRLSCAASGSTVGYNALGWYRQAPGKASELVAAITSRGSTNYADSVKGRFTISRDNAKNTVYLQMNSLKPEVTAVYYCAKATSSSEYGYDYWGQGTQVTVSS
- polyreactivity (PSR sort gate): high polyreactivity

Sequence: QVQLVESGGGLVQAGGSLRLICAASGSTFDQNVMGWYRQAPGKDRELVGTINFSGDSTYYADSVKGRFTISRDNAKNTVYLQMNSLKPEDPAVYYCAVDWGEYIDTSVKRDISYYWGQGTQVTVSS
- polyreactivity (PSR sort gate): low polyreactivity

Sequence: QVQLVESGGGLVQAGGSLRLSCAASGSTFIVYAMGWYRQAPGKERELVAAITRGGSTNYADSVKGRFTISRDNAKNTVYLQMNSLKPEDTAVYYCAAPYAGWRDGGDYWGQGTQVTVSS
- polyreactivity (PSR sort gate): low polyreactivity

Sequence: QVQLVESGGGLVQAGGSLRLSCAASGSTFQTYAMGGYRQAPGKEREFVAAITSGGSTNYADSVKGRFTISRDNAKNTVYLQMNSLKPEDTAVYYCAVRQIYQTSDHRLQYDYWGQGTQVTVSS
- polyreactivity (PSR sort gate): low polyreactivity

Sequence: QVQLVESGGGLVQAGGSLRLSCAASGIIFTRYVMGWYRQAPGKQRELVAVISRRGGTTYYADSVKGRFTISRDNAKNTVYLQMNSLKPEVTAVYYCNTDGYRYPGSGINYYYWGQGTQVTVSS
- polyreactivity (PSR sort gate): high polyreactivity

Sequence: QVQLVESGGGLVQAGGSLRLSCAASGLIFSAYDMGWYRQAPGKERELVASITSGGSTYYADSVKGRFTISRDNAKNTVYLQMNSLKPEDTAVYYCNADGGWYPYRWRYIEGEYWGQGTQVTVSS
- polyreactivity (PSR sort gate): low polyreactivity

Sequence: QVQLVESGGGLVQAGGSLRLSCAASGFTFGTYAMGWYRQAPGKERELVAAITDGGGSTYYADSVKGRFSISRDNAKNTVYLQMNSLKPEDTAVYYCAAEFGYGWYTWLTGNDYWGQGTQVTVSS
- polyreactivity (PSR sort gate): low polyreactivity
